Measured values taken from the supplement of paper PMC10126150.
± gives the standard deviation of the averaged measurements.

These sequences were tested on ATP (assay: switch fluorescence ratio, 500 uM ATP over buffer (Cy3 cluster intensity, sum of 5 cycles each) (fold (ratio)); higher = stronger signal-on switching upon ATP binding; sequences stand for … in TCGTCGGCAGCGTCAGATGTGTATAAGAGACAGTTTTTTTTTTTTTTTTTTTTTTTTT…TC). Conditions: aptamer strand: ATP DNA aptamer (quencher-CACCTGGGGGAGTATTGCGGAGGAAGG + anchor), 100 nM annealed; ATP concentration: 500 uM.
Method in brief: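 For every switch-domain sequence, the fluorescence ratio is the mean of per-cluster values, each being summed target-cycle Cy3 intensity over summed buffer-cycle Cy3 intensity. Clusters outside 100-1000 RFU were excluded. On a modified Illumina MiSeq flow-cell, the Cy3-labelled switching-strand clusters were annealed to 100 nM quencher-labelled ATP aptamer, imaged in selection buffer and then after 15 min with 500 uM ATP at 22 °C. Five such cycles were run, with NaOH stripping and re-annealing between them.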
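Further: ATP exposure 15 min at 22 °C before imaging.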

Sequence | switch fluorescence ratio
CGGCCTGGCG | 0.969 ± 0.016
CGGCGAAGAT | 1.01 ± 0.025
CGGCGCATTA | 2.86 ± 0.55
CGGCGCGCTG | 0.997 ± 0.034
CGGCGCTAGG | 1.05 ± 0.045
CGGCGCTTCA | 1.063 ± 0.0061
CGGCGCTTGG | 1.09 ± 0.035
CGGCGGAACG | 0.966 ± 0.031
CGGCGGATTC | 1.03 ± 0.019
CGGCGGCAGG | 0.9881 ± 0.0068
CGGCGGTCGG | 0.9808 ± 0.0076
CGGCGTTCGC | 0.964 ± 0.049
CGGCGTTGCT | 0.981 ± 0.045
CGGCTACGGG | 0.995 ± 0.046
CGGCTAGGTC | 1.03 ± 0.012
CGGCTAGTGG | 0.961 ± 0.032
CGGCTCGATA | 0.976 ± 0.02
CGGCTCTTAG | 0.99 ± 0.011
CGGCTGGAGT | 1.001 ± 0.0043
CGGCTGGGGC | 1.02 ± 0.015
CGGCTGGGGG | 0.976 ± 0.014
CGGCTTATAT | 1.06 ± 0.041

Sequence | switch fluorescence ratio
CGGCTTATGG | 1.03 ± 0.07
CGGGAAAATG | 0.988 ± 0.012
CGGGAAAATT | 1.02 ± 0.025
CGGGAAATCC | 1.042 ± 0.0085
CGGGAACTGG | 0.97 ± 0.023
CGGGAAGGTT | 1.08 ± 0.16
CGGGACCCCC | 1.141 ± 0.011
CGGGACTGTT | 1.02 ± 0.059
CGGGAGAATA | 0.989 ± 0.013
CGGGAGAGAC | 1.013 ± 0.0025
CGGGAGTCAG | 1 ± 0.021
CGGGAGTTAG | 1.02 ± 0.021
CGGGATAATC | 1.07 ± 0.052
CGGGATATGG | 1.03 ± 0.045
CGGGATCCAC | 1.01 ± 0.034
CGGGATCTGG | 0.977 ± 0.015
CGGGATGCCC | 1.01 ± 0.047
CGGGATGGGG | 1 ± 0.041
CGGGATGTTG | 1.02 ± 0.035
CGGGATTCTG | 1 ± 0.031
CGGGCAGCGT | 0.986 ± 0.0076
CGGGCCATCG | 0.9939 ± 0.0063

Sequence | switch fluorescence ratio
CGGGCCGAGG | 1.02 ± 0.018
CGGGCCGGGT | 0.976 ± 0.031
CGGGCCTTGG | 1.026 ± 0.0016
CGGGCGGGGT | 1.03 ± 0.051
CGGGCTACTA | 1.05 ± 0.016
CGGGCTAGGG | 0.9979 ± 0.0049
CGGGCTATCC | 1.03 ± 0.03
CGGGCTATTC | 1.22 ± 0.034
CGGGCTGGTG | 1.0093 ± 0.0005
CGGGCTGTGG | 0.992 ± 0.03
CGGGCTTAAG | 1.02 ± 0.037
CGGGCTTGG | 1.03 ± 0.021
CGGGGAAATA | 1.01 ± 0.027
CGGGGAAATC | 1.03 ± 0.035
CGGGGAATGG | 1.01 ± 0.03
CGGGGACGGA | 1.02 ± 0.029
CGGGGAGGCA | 0.997 ± 0.031
CGGGGAGGTC | 1.07 ± 0.072
CGGGGAGTGC | 1.01 ± 0.061
CGGGGATACT | 1.38 ± 0.24
CGGGGATCGG | 0.984 ± 0.011
CGGGGATGTG | 1.02 ± 0.025

Sequence | switch fluorescence ratio
CGGGGCAAAG | 1.96 ± 1.6
CGGGGCACAG | 1.005 ± 0.0014
CGGGGCAGAG | 0.991 ± 0.043
CGGGGCGTGC | 1.01 ± 0.029
CGGGGCTTGG | 1.01 ± 0.023
CGGGGGACCG | 1 ± 0.02
CGGGGGAGGA | 0.997 ± 0.011
CGGGGGCAGC | 1.01 ± 0.06
CGGGGGCCAG | 0.994 ± 0.038
CGGGGGCGCA | 0.9414 ± 0.007
CGGGGGCGCC | 1.02 ± 0.031
CGGGGGCGGC | 0.974 ± 0.014
CGGGGGCGGG | 0.99 ± 0.042
CGGGGGCTAG | 0.996 ± 0.012
CGGGGGCTTG | 0.975 ± 0.02
CGGGGGGACT | 0.998 ± 0.059
CGGGGGGCAC | 0.999 ± 0.021
CGGGGGGCGT | 0.999 ± 0.021
CGGGGGGGAC | 1.11 ± 0.16
